Experimental data as given in publication PMC3268813.

Molecular target: synthetic wild-type CRN2 coiled coil peptide (human), Q9ULV4
Experiment: SEC-MALS

With VQNEAKLDEILKEIKSIKDTICNQDERISKLEQQMAKIAA (modifications not checked) [synthetic wild-type CRN2 coiled coil peptide, Q9ULV4 442-472] the stoichiometry N was 3.
